Assay results: patent publication US20180296632A1 (DIACCURATE, published 2018)
[ ]: non-standard residue; d: D form. 2Nal = N[C@@H](Cc1ccc2ccccc2c1)C(=O)O

Target: Recombinant PLA2GIB enzyme (sPLA2GIB produced in E. coli) (UniProt P04054 23-148)
Assay: cell-based or functional assay

Sequence of Recombinant PLA2GIB enzyme (sPLA2GIB produced in E. coli) (P04054 23-148 limits assumed): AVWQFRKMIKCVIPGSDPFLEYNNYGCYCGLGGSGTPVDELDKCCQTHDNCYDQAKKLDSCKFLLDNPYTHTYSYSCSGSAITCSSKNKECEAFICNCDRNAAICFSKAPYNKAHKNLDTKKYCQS

- IC50 of inhibition of PLA2GIB activity in the bioassay (inhibition of IL-7-induced nuclear translocation of phospho STAT5 in CD4 T cells, STED microscopy): ~4.9 µM
Binder: cyclo([2Nal]LS[2Nal]R) [Peptide I (cyclic(2-NaphthylAla-Leu-Ser-2-NaphthylAla-Arg))]
